Source: the nanobody polyreactivity screen of Harvey et al. (2022)

Test: yeast display, Sf9 membrane polyspecificity reagent, FACS + sequencing; frameworks hold sequencing errors
Summary of the method: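 Nanobodies came from a synthetic yeast display library in Saccharomyces cerevisiae BJ5465, induced with galactose for 36–48 hours and stained for 1 hour at 4 °C with 10% biotinylated, detergent-solubilized Sf9 membrane reagent. Cells were enriched on streptavidin microbeads and then FACS-sorted, with low and high (top ~1%) gates set on anti-HA fluorescence for expression and streptavidin fluorescence for reagent binding. Each polyreactivity label reflects the gate a clone came from. Genes were amplified by colony PCR, sequenced by MiSeq 2 × 250 and filtered by CDR length.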

| Sequence | polyreactivity (PSR sort gate) |
| --- | --- |
| QVQLVESGGGLVQAGGSLRLSCAASGITFNYNAMGWYRQAPGKERELVARITWSGTRTYYADSVKGRYTISRDNAKNTVYLQMNSLKPEDTAVYYCNADPYARYYWGQGTQVTVSS | high polyreactivity |
| QVQLVESGGGLVQAGGSLRLSCAASGITIFTYAMGWYRQAPGKERELVAAISGSGGSTYYADSVKGRFTISRDNAKNTVYLQMNSLKPEDTAVYSCAAEYTYGSPYDYWGQGTQVTVSS | low polyreactivity |
| QVQLVESGGGLDQAGGSLRLSFAASGFTFGYYAMGWYRQEPGKARELVAAITYDGDTTYYADSVKGRITISRDNAKNTVYLQMNSLKPEDTAVYYCNRDVLTFNYDYWGQGTQVTVSS | low polyreactivity |
| QVQLVESGGGLVQAGGSLRLSCAASRSTFEGYAMGLYRQAPGKERELVAAITVSVGSTYYADSVKGRFTISRDNAKNTVYLQMNSLKPEDTAVYYCAADYDYQYRYYYWGQGTQVTVSS | low polyreactivity |
| QVQLVESGGGLVQAGGSLRLSCAASGSLFKYYAMGWYRQAPGKERELVAAITIGGNTNYADSVKGRFTISRDNAKNTVYLQMNSLKPEDTAVYYCATGGYYSAIVYGGYDYWGQGTQVTVSS | low polyreactivity |
| QVQLVESGGGLVQAGGSLRLSCAASGSTFSYNMGWYRQAPGKERELVAAISGSGGSTYADSVKGRFTISRDNAKNTVYLQMNSLKPEDTAVYYCATVRYWVHEYGYWGQGTQVTVSS | high polyreactivity |
| QVQLVESGGGLVQAGGSLRLSCAASGSIFKIYAMGWSRQAPGKERELVAAISRSVGSTYADSVKGRFTISRDNAKNTVYLQMNSLKPEDTAVYYCNARYKSRLYPRYDYWGQGTQVTVSS | high polyreactivity |
| QVQLVESGGGLVQAGGSLRLSCAASGSIFIVYAMGWYRQAPGKERELVATISWSGGSTSYADSVKGRFTISRDNAKNTVYLQMNSLKPEDTAVYYCNTLVRITEYDSWGQGTQVTVSS | low polyreactivity |
| QVQLVESGGGLVQAGGSLRLSCAASGFAFSYYAMGWYRQAPGKEREFVASIDWSGGSTYYADSVKGRFTISRDIAKTTVYLQMNRLKPEDTAVYYCAAELDYFPGYDYWGQGTQVTVSS | low polyreactivity |
| QVQLVESGGGLVQAGGSLRLSCAASGFTFVGYPLGWYRQATGKERELVAAISVSGGRTYYADSVKGRFTISRDNAMNTVYLQMKSLNPEDTAVYYCNAASPSYADFDYWGQGTQVTVSS | high polyreactivity |
| QVQLVVSGGGLVQAGGSLRLSCAASGRIFWFNAMGWYRQAPGKEREFVATITYRGGSTYYADSVKGRFTISRDNAKNTVYLQMNSLLPEDTAVYYCAASVSYRRYHRFGYWGQGTQVTVSS | high polyreactivity |
| QVQLVESGGGLVQAGGSLRLSCAASGGTFRKYTMGWYRQAPGKERELVAAISSTGSSTYYADSVKGRFTISRDNAKNTVYLQMNSLKPEDTAVYYCAADVFSGYYWPVLEDHWGQGTQVTVSS | high polyreactivity |
| QVQLVESGGGLVQAGGSLRLSCAASGRTFTRYTMGWYRQAPGKERELVAAIRYSGGSTYYADSVKGRFTISRDNAKNTVYLQMNSLKPEDTAVYYCAARSYYYGFLYRYDYWGQGTQVTVSS | low polyreactivity |
| QVQLVESGGGLVQAGGSLRLSCAASGITFRSYAMGWNIQAPGKERELVAAITTGTRTYYADSVKGRFTISRDNAKNTVFLQMKSLKPEDTAVYYCARDGVGRVYGYLTPLGYDYWGHGTQVTVSS | low polyreactivity |
| QVQLVESGGGLFHAGGSLRLSCAASGSTFAYYAMGWYIQAPGKERELVAGISGSGGSTYYADSVKGRFTISRDNAKNTVYLQMKSLKPEDNAVYYCAVVQRSKRTYPWYDYWGQGTQVTVCS | low polyreactivity |
| QVQLVESGGGLVQAGGSLRLSCAASGSTRLYAMGWYRQAPGKERELVAAIRSSGSSTYYADSVKGRFTISRDNAKNTVYLQMNSLKPEDTAVYYCNADRIRKGWRYDYWGQGTQVTVSS | high polyreactivity |
| QVQLVESGGGLVQAGGSLRLSCAASGFTFSNYAMGWYRQAPGKEREFVAAISGTGGSTYYADSVKGRFTISRDNAKNTVYLQMNSLKPEDTAVYYCNARERVSRQYTFDYWGQGTQVTVSS | high polyreactivity |
| QVQLVESGRGLVQAGGSLRLSCAASGSIFNCYDMGWYRQAPGKERELVADIRSAGSTYYADSVKGRFTISRDNAKNTVYLQMNSLKPEDTAVNYCAAEAPVQPFYVFNTGIYELDYWGQGTQVTVSS | low polyreactivity |
| QVQLVESGGGLVQAGGSLRLSCAASGSIFRIYAMGWYRQAPGKEREFVAAISSRGGRTYYADSVKGRFTISRDNAKNTVYLQMNSLKPEDTAVYYCNARATRGSYYEYEYWGQGTQVTVSS | high polyreactivity |
| QVQLVESGGGLVQAGGSLRLSCAASGFTVIDYAMGWYSQAPGKERELVAAITTGTITYYADSVTGRFTISRDNAKNTVYLQMNSLKPEDTAVYYCNADWLTLATTMNYWGQGTQVTVSS | low polyreactivity |
| QVQLVESGGGLVQAGGSLRLSCAASGYTFTIYSMGWYRQAPGKERELVAAISWNGGRTYYADSVKGRFTISRDNAKNTVYLKMNSLKPEDTAVYDCNADNFSAGDYWGQGTQVTVSS | high polyreactivity |
| QVQLVESGGGLVQAGGSLRLSCAASGSTFPRNAMGWYRQAPGKERELVAAISRSGGSTYYADSVKGRFTISRDNAKNTVYLQINSLKPEDTAVYYCAASYYGLPRYRYEYWGQGTQVTVSS | high polyreactivity |

| Sequence | polyreactivity (PSR sort gate) |
| --- | --- |
| QVQLVESGGGLVQAGGSLRLSCAASGRIFGVYAMGRYRQAPGKERELVAGINGGDSTYYADSVKGRFTISRDNAKNTVYLQMNSLKAEDTAVYYCAAEADESGSNYDYWGQGTQVTVSS | low polyreactivity |
| QVQLVESRGGLVHAGGSLGLSCAASGSTFGVNAMGWYRQAPGKERELVASISSGGGTYYADSVKGRFTISRDNSKNTVYLQMNSLKPEDTAVYYCAAVYYWYDSYAGYDYWGQGTQVTVSS | low polyreactivity |
| QVQLVESGGGLVQAGGSLRLSCAASGSIFIQNGMGWYRQAPGKERELVASSASGGSTNYADSVKGRYTISRDNAKNTVYVQMNSLKPEDTAVYYCAARVWYSSDGSTYPYTRYDYWGQGTQVTVSS | high polyreactivity |
| QVQLVESGGGLVQAGGSLRLSCAASGIILDRNAMGWYRQAPGKERELVAAINSIGGSTYYADSVKGRFTISRDNAKKTVYLQMNSLKPEDTAVYYCAAPSTSSYYWGQGTQVTVSS | low polyreactivity |
| QVQLVESGGGLVQAGGSLRLSCAASGRTFTSYAMGWYRQAPGKEREFVAAITTSGGSTYYTDSVKGRFTISRDNAKNTVYLQMNSLKPEDTAVYYCAAYVAYDRSGQYDYWGQGTQVTVSS | high polyreactivity |
| QVQLVESGGGLDQAGRSLRLICAASVFTIHAYAMGRYRQAHGKERELVAAISASGGSTYYADSVKGRFTISRDNANNTVYLKMNSLKPEDTAVYYCNAGDYRTFYRRFDYWGQGTQVTVSS | low polyreactivity |
| QVQLVESGGGLVQAGGSLRLSCAASGSILWQYAMGWYRQAPGKERELVAAISTGGSTYYAESVKGRFTISRDNAKNTVYLQMNSLKPEDTAVYYCAAYVDYSVYFGGGYWGQGTQVTVSS | low polyreactivity |
| QVQLVESGGGLVQAGGSLRLSCAASGSTFDTNAMGWYRQAPGKERELVAAISASGGSTYYADSVKGRFTISRDNAKNTVYLQMNSLKPEDTAVYDCAAKTRGQQRKFDYWGQGSQVTVSS | high polyreactivity |
| QVQLVESGGGLVQAGGSLRLSCAASGFTFYRYAMGWYRQAPGKERELVAAISRGGSTNYADSVKGRFTISRDNAKNTVYLQMNSLKPEDTAVYYCNTRYVKGFYWGQGTQVTVSS | high polyreactivity |
| QVQLVESGGGLVQAGGSLRLSCAASGSIFVSYAMGWYRQAPGKERELVAAISSSGTRTYYADSVKGRFTISRDNAKNTVYLQMNSLKPEDTAVYYCAKDSYHTVWGGYWGQGTQVTVSS | high polyreactivity |
| QVQLVESGGGLVQAGGSLRLSCAASGRIFNVYAMGWYRPAPGTERELVAAIRRRGDRTYYADSVKGRFTLSRDNAKNTVYLQMNSLNPEDTADYYCAKSQSAKGGYDYWGQGTQVTVSS | high polyreactivity |
| QVQLVESGGGLVQAGGSLRLSCAASGTFQVNAMGWYIQAPGKERELVAAINSNGGSTYYADSVKGRFTISRDNAKNTVYLQMNSLKPEDTAVYYCAAVYQRRRSYYWGQGTQVTVSS | high polyreactivity |
| QVQLVESGGGLVQAGGSLRLSCAASGFIFYYNTMGWYRQAPGKERELVAAISSGGRTYYADSVKGRFTISRDNAKNTVYLQMNSLKPEVTAVYYCNVVTYVKYGYWGQGTQVTVSS | high polyreactivity |
| QVQLVESGGGLVQAGGSLRLSCAASGLTFRYYAMGWYRQAPGKERELVAAITRRGSTYYADSVKGRFTISRDNAKNTVYLQMNSLKPEDTAVYFCATVTGFHSSPLRDLDYWGHGTQVTVSS | high polyreactivity |
| QVQLVESGGGLVQAGGSLRLSCAASGSTISKYAMGWYRQAPGKERYLVAAISSRGGSTYYADSVKGRFTISRDNAKNTVYLQMNSLTPEDTAVYYCNATPYPGGNGRWRFWKSYRYWGQGTQVTVSS | high polyreactivity |
| QVQLVESGGGLVQAGGSLRLSCAASGRTFANYAMGWYRQAPGKERELVAAISWSGGSTYYADSVKGRFTISRDNAKNSVYLQMNSLKPEDTAVYYCAALAGRAYGYGYWGQGTQVTVSS | high polyreactivity |
| QVQLVESGGGLVQAGGSLRLICAASGFIFGDYTMGWYRPAPGKEREVVAAITWYGDSTYYADSVKGRFTISRDNAKNTVYLQMNTLKTEDTAVYYCNAVNDWYYAYYGVTSFRSYDYWGQGSQVTVSS | low polyreactivity |
| QVQLVESGGGLVQAGGSLRLSCAASGSTFWSYAMGWYRQAPGKEREFVAAISSSDDSTYYADSVKGRFTISRDNAKNTVYLQMNSLKPEDTAVYYCATSWYIYPYDYWGQGTQVTVSS | low polyreactivity |
| QVQLVESGGGLVQAGGSLRLSCAASGRIFGEYAMGWYRQAPGKERELVAAISGGGSTYYADSVKGRFTISRDNAKNTVYLQMNSLKPEDTAVFYCAVYSVYHEYDYWGQGTQVTVSS | low polyreactivity |
| QVQLVESGGGLVQAGGSLRLSCAASGRIFYINALGWYRQAPGKERELVASITGSGDSTYYADSVKGRFTISRDNAKNTVELQMNSLKPEDTAVYYCAARTYYYYGPRYYYWGQGTQVTVSS | low polyreactivity |
| QVQLVESGGGLVQAGGSLRLSCAASGRIISRYAMGWYRQAPGKERELVAAISRRGGSTYYADSVKGRFTISRDNAKNTVYLQMNSLKPEDTAVYYCAAVRRKTAGGLEDYWGQGTQVTVSS | high polyreactivity |
